US20210196823A1, “Methods of Treating Metabolic Disease” (Pfizer Inc., priority 2018, published 2021)

Columns and labels:
Huh7 cells = test: Gene expression microarray of Huh7 cells treated with ERFE; type: cell-based; conditions: Huh7, ERFE 10 μg/ml, 24 h
Protocol: (§1) (b) Gene expression microarray: Microarray analysis of Huh7 cells treated with mouse or human erythroferrone was carried out to test the activity of erythroferrone on the BMP/SMAD signalling pathway. Generally cell treatments were carried out according to the following protocol: Huh7 and HepG2 were cultured in Dulbecco's Modified Eagle's Medium—High Glucose (Sigma), supplemented with 10% Fetal Bovine Serum (Sigma), 1% Penicillin-Streptomycin (Sigma) and 1% L-Glutamine (Sigma), unless otherwise indicated. Cells were plated 24 h before treatments in 24-well (gene expression analysis) or 12-well (protein analysis) cell culture plates. At the time of treatment, cells were washed with PBS and fresh media was added.
For the purposes of gene expression microarray analysis RNA was isolated from the Huh7 cells using RNeasy Plus kit (Qiagen), this was followed by RNA quantification and quality assessment using a 2100 Bioanalyzer (Agilent). RNA was converted into biotin labelled cRNA for hybridization and gene expression analysed using the Human HT12v4.0 Expression Beadchip (Illumina) and the Illuminas's iScan Scanner. Raw data was normalised using the lumi package (Bioconductor) and compared using LIMMA (Bioconductor). Statistical significance was set at p<0.05.

[1] = tested on: BMP-target genes in the liver; test: Short-term ERFE treatment in WT mice: liver BMP-target genes, serum and liver iron; type: in vivo; conditions: 200 μg i.v., 3 h
Excerpt: (a) Animal studies: Wild-type male C57BL/6 mice were purchased from Harlan Laboratories, UK. Embryos from Fam132b+/− mice on a mixed Sv129/C57BL/6 background were obtained from the Mutant Mouse Regional Resource Center (MMRRC) at UC Davis (strain 66; 12955-Fam132btm1Lex/Mmucd, ID MMRRC:032289-UCD) and backcrossed onto C57BL/6 background using marker-assisted accelerated backcrossing. Heterozygote pairs were mated to generate homozygous animals from which knockout and wild-type colonies were maintained. Animals were housed in individually ventilated cages in the Department of Biomedical Services, University of Oxford, and provided access to normal chow (163 ppm of iron, Special Diets Services 801700) and water ad libitum. All experiments were performed in 9-13 weeks old male mice. For EPO treatments, mice were injected intraperitoneally with 200 IU recombinant human EPO (Bio-Rad) in water or vehicle (water) daily for three consecutive days and culled 24 h after the last EPO injection. For ERFE treatments, mice were injected intravenously with 200 μg of recombinant mouse ERFE or vehicle (saline) and culled 3 h after treatment. Mice were euthanized in increasing CO2 concentrations.
(b) Serum iron analysis: Blood was taken by cardiac puncture immediately after euthanising mice and collected in BD EDTA or SST (serum) Microtainer tubes. Serum was prepared by centrifugation of clotted blood at 8000×g for 3 minutes in BD Microtainer SST tubes (Beckton Dickinson) and used for serum iron quantification using a Abbott Architect c16000 automated analyzer (Abbott Laboratories).
(c) Tissue non-heme iron measurement: Liver tissues were dried for 4 hours at 100° C., weighed and digested in 10% tricholoroacetic acid (Sigma)/30% hydrochloric acid (Sigma) for 20 hours at 65° C. A standard curve was generated using a dilution series of ferric ammonium citrate (Sigma) in the 10% (w/v) trichloroacetic acid/30% hydrochloric acid mixture. Non-heme iron content was determined colorimetrically by measuring absorbance at 535 nm following reaction with chromogen reagent containing 0.1% (w/v) bathophenoldisulphonic acid (Sigma)/0.8% thioglycolic acid (Sigma).
Three hours after the injections, mice were culled and serum and liver iron measured. […] Additionally, three hours after the injections, mice were culled and the liver harvested for analysis of liver gene expression for BMP-target genes.

HepG2 cells = test: HAMP and ID1 qRT-PCR in HepG2 cells treated with BMPs with or without mouse ERFE; type: cell-based; conditions: 2 nM BMP 2/6, BMP6 or BMP7 + 10 μg/ml mouse ERFE, 6 h, serum-free media
Protocol: as §1
(c) RNA isolation, cDNA synthesis and qRT-PCR: Suppression of several BMP-target genes: HAMP, ID1, ID3, SMAD6 and SMAD7 was further confirmed by qRT-PCR. Cells were lysed and RNA was isolated using the RNeasy Plus kit (Qiagen), followed by RNA quantification and quality assessment using Nanodrop (Thermo Fisher). cDNA was synthesized using the High Capacity RNA-to-cDNA kit (Applied Biosystems). Gene expression was assessed using quantitative real-time PCR with Taqman Gene Expression Master Mix and inventoried Taqman Gene expression assays (Applied Biosystems) specific for the genes of interest according to the manufacturer's instructions. […]

C2C12 Bre-Luc cells = test: BMP/SMAD signalling output in C2C12 Bre-Luc cells; type: cell-based; conditions: 24 h
Protocol: As HAMP can be stimulated by a variety of ligands, we further tested the effect of ERFE in cells treated with various BMPs by measuring BMP/SMAD signalling output in C2C12 Bre-Luc cells. C2C12 Bre-Luc cells were treated with 2 nM of BMP in combination with a gradient of mouse ERFE concentrations (7.5 pM to 0.5 μM) for 24 h, and luminescence measured in each well. […] Analogous data confirmed suppression of HAMP and ID1 in cells treated with ERFE and BMP 2/6, BMP5, BMP6 and BMP7, FIG. 3F.
The inhibitory effect of EFE on selected BMPs was tested in-vitro in three different cell types, C2C12, Huh7 and HepG2. Huh7 (FIG. 3G, 3H) and HepG2 (FIGS. 3J, 3K) cells were treated with 2 nM of BMPs, alone or in combination with 10 μg/ml of mouse ERFE, in serum-free media, and analysed 6 h after treatment. Gene expression of HAMP and ID1 was measured by qRT-PCR. Results expressed as fold change relative to non-treated cells from 3 independent experiments. Statistical significance was analysed for each pair of BMP treatments. (*p<0.05, **p<0.01, ***p<0.001, ****p<0.0001, Student's t test). Additionally we tested the effect of ERFE in cells treated with various BMPs by measuring BMP/SMAD signalling output in C2C12 Bre-Luc cells (FIG. 3E). C2C12 Bre-Luc cells were treated with 2 nM of BMP in combination with a gradient of mouse ERFE concentrations (7.5 pM to 0.5 μM) for 24 h, and luminescence measured in each well.

B1: mouse ERFE: recombinant mouse erythroferrone (SEQ ID NO: 2); monoFC-muErfe is a monomeric FC murine ERFE fusion (protein, listed as Mus musculus)
chain: MASRRPVGARTLLACASLLAAMGLGVPESAEPVGTHARPQPPGAELPAPPANSPPEPIAHAHSVDPRDAWMLFVKQSDKGINSKRRSKARRLKLGLPGPPGPPGPQGPPGPFIPSEVLLKEFQLLLKGAVRQRESHLEHCTRDLPASGSPSRVPAAQELDSQDPGALLALLAATLAQGPRAPRVEAAFHCRLRRDVQVDRRALHELGIYYLPEVEGAFHRGPGLNLTSGQYTAPVAGFYALAATLHVALTEQPRKGPTRPRDRLRLLICIQSLCQHNASLETVMGLENSSELFISVNGVLYLQAGHYSVFLDNASGSSLTVRSGSHFSAILLGL
Huh7 cells
  target genes of the JAK/STAT3 pathway: No changes
Huh7 cells; 5 are BMP/SMAD targets ID1, ID2, ID3, SMAD6, HAMP
  number of suppressed genes: 12
[1]
  liver iron: not affected
  serum iron: not affected
[1]; in comparison to the control
  serum hepcidin levels: reduced
[1]; vs inactive control Clip huERFE
  liver expression of Hamp and BMP-target genes: significantly reduced
HepG2 cells
  HAMP and ID1 expression / BMP/SMAD signalling in BMP-treated HepG2 cells: suppresses
C2C12 Bre-Luc cells; 2 nM BMP2, mouse ERFE 7.5 pM to 0.5 μM
  BMP2 activity (luminescence): no effect
C2C12 Bre-Luc cells; 2 nM BMP4, mouse ERFE 7.5 pM to 0.5 μM
  BMP4 activity (luminescence): no effect
C2C12 Bre-Luc cells; 2 nM BMP5, mouse ERFE 7.5 pM to 0.5 μM
  activation of BMP signalling by BMP5 (luminescence): dose-dependent decrease
C2C12 Bre-Luc cells; 2 nM BMP6, mouse ERFE 7.5 pM to 0.5 μM
  activation of BMP signalling by BMP6 (luminescence): dose-dependent decrease
C2C12 Bre-Luc cells; 2 nM BMP7, mouse ERFE 7.5 pM to 0.5 μM
  activation of BMP signalling by BMP7 (luminescence): dose-dependent decrease
C2C12 Bre-Luc cells; 2 nM BMP9, mouse ERFE 7.5 pM to 0.5 μM
  BMP9 activity (luminescence): no effect
